B1: recombinant human IL-12 (rhIL-12) control (ligand)
chain 1: IWELKKDVYVVELDWYPDAPGEMVVLTCDTPEEDGITWTLDQSSEVLGSGKTLTIQVKEFGDAGQYTCHKGGEVLSHSLLLLHKKEDGIWSTDILKDQKEPKNKTFLRCEAKNYSGRFTCWWLTTISTDLTFSVKSSRGSSDPQGVTCGAATLSAERVRGDNKEYEYSVECQEDSACPAAEESLPIEVMVDAVHKLKYENYTSSFFIRDIIKPDPPKNLQLKPLKNSRQVEVSWEYPDTWSTPHSYFSLTFCVQVQGKSKREKKDRVFTDKTSATVICRKNASISVRAQDRYYSSSWSEWASVPCS
chain 2: RNLPVATPDPGMFPCLHHSQNLLRAVSNMLQKARQTLEFYPCTSEEIDHEDITKDKTSTVEACLPLELTKNESCLNSRETSFITNGSCLASRKTSFMMALCLSSIYEDLKMYQVEFKTMNAKLLMDPKRQIFLDQNMLAVIDELMQALNFNSETVPQKSSLEEPDFYKTKIKLCILLHAFRIRAVTIDRVMSYLNAS
B2: rhIL-12RB2-Fc (Fc fusion)
chain: KIDACKRGDVTVKPSHVILLGSTVNITCSLKPRQGCFHYSRRNKLILYKFDRRINFHHGHSLNSQVTGLPLGTTLFVCKLACINSDEIQICGAEIFVGVAPEQPQNLSCIQKGEQGTVACTWERGRDTHLYTEYTLQLSGPKNLTWQKQCKDIYCDYLDFGINLTPESPESNFTAKVTAVNSLGSSSSLPSTFTFLDIVRPLPPWDIRIKFQKASVSRCTLYWRDEGLVLLNRLRYRPSNSRLWNMVNVTKAKGRHDLLDLKPFTEYEFQISSKLHLYKGSWSDWSESLRAQTPEEEPTGMLDVWYMKRHIDYSRQQISLFWKNLSVSEARGKILHYQVTLQELTGGKAMTQNITGHTSWTTVIPRTGNWAVAVSAANSKGSSLPTRINIMNLCEAGLLAPRQVSANSEGMDNILVTWQPPRKDPSAVQEYVVEWRELHPGGDTQVPLNWLRSRPYNVSALISENIKSYICYEIRVYALSGDQGGCSSILGNSKHKAPLSGPHINAITEEKGSILISWNSIPVQEQMGCLLHYRIYWKERDSNSQPQLCEIPYRVSQNSHPINSLQPRVTYVLWMTALTAAGESSHGNEREFCLQGKAN

Experiments:
Assay in all cases: SPR; KD estimated
rhIL-12RB1-Fc = rhIL-12RB1-Fc (human, UniProt P42701 24-545)
rhIL-12RB2-Fc = molecular target: B2
AK384 = molecular target: AK384

Kd (rhIL-12RB1-Fc) | Kd (rhIL-12RB2-Fc) | Kd (AK384) | Binder
60.1 nM | 0.617 nM | – | B1
– | – | 1.7 nM | B2
